# Experimental data from paper PMC10397247.
# T1: 4H2190-AA
# T1 chain: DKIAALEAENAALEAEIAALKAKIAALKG
# T2: 4H1552-AA
# T2 chain: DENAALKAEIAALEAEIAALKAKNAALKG
# T3: 4H881-AA
# T3 chain: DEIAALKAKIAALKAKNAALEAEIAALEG
# T4: 4H3627-AA
# T4 chain: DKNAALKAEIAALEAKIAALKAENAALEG
# T5: 4H317-AA
# T5 chain: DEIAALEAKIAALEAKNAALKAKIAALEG
# T6: 4H566-AA
# T6 chain: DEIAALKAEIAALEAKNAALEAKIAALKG
# T7: 4H906-AA
# T7 chain: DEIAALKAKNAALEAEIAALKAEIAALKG
# T8: 4H794-AA
# T8 chain: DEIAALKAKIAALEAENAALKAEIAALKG
# T9: 4H2466-AA
# T9 chain: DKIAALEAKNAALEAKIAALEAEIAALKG
# T10: 4H429-AA
# T10 chain: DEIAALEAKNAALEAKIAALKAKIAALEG
# T11: 4H2617-AA
# T11 chain: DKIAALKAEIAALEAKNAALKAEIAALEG
# T12: 4H2575-AA
# T12 chain: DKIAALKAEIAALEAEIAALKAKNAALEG
# T13: 4H780-AA
# T13 chain: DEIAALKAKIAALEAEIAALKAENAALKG
# T14: 4H2165-AA
# T14 chain: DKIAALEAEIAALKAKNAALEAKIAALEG
# T15: 4H3844-AA
# T15 chain: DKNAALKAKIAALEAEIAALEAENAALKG
# T16: 4H2729-AA
# T16 chain: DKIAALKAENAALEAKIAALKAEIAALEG
# T17: 4H1636-AA
# T17 chain: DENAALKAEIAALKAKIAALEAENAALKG
# T18: 4H3655-AA
# T18 chain: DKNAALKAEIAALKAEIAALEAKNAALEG
# T19: 4H342-AA
# T19 chain: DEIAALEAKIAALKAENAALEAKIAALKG
# T20: 4H2505-AA
# T20 chain: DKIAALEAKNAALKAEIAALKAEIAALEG
# T21: 4H48-AA
# T21 chain: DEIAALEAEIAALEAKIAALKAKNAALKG
# T22: 4H3343-AA
# T22 chain: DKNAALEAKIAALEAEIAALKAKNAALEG
# T23: 4H993-AA
# T23 chain: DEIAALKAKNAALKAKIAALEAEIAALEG
# T24: 4H3112-AA
# T24 chain: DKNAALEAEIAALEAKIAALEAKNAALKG
# T25: 4H2151-AA
# T25 chain: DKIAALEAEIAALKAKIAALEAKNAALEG
# T26: 4H2949-AA
# T26 chain: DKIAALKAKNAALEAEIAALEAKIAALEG
# T27: 4H335-AA
# T27 chain: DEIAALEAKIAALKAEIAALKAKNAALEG
# T28: 4H3921-AA
# T28 chain: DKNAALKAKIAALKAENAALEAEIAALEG
# T29: 4H234-AA
# T29 chain: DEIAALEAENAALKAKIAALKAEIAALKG
# T30: 4H454-AA
# T30 chain: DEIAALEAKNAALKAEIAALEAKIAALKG
# T31: 4H3427-AA
# T31 chain: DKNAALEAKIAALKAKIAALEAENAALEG
# T32: 4H1867-AA
# T32 chain: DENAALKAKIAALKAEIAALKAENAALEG
# T33: 4H2078-AA
# T33 chain: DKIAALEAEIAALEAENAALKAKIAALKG
# T34: 4H2277-AA
# T34 chain: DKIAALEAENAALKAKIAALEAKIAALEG
# T35: 4H717-AA
# T35 chain: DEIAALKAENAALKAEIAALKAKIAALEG
# T36: 4H2837-AA
# T36 chain: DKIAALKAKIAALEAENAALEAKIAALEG
# T37: 4H2754-AA
# T37 chain: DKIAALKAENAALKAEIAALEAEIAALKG
# T38: 4H2393-AA
# T38 chain: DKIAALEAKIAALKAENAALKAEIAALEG
# T39: 4H678-AA
# T39 chain: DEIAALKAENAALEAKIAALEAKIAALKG
# T40: 4H2354-AA
# T40 chain: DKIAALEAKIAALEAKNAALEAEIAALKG
# T41: 4H3606-AA
# T41 chain: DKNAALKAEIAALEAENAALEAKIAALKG
# T42: 4H2944-AA
# T42 chain: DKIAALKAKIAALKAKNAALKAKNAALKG
# T43: 4H605-AA
# T43 chain: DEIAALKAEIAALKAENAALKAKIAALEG
# T44: 4H2883-AA
# T44 chain: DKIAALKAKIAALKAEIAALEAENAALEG
# T45: 4H2642-AA
# T45 chain: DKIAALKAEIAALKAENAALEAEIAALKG
# How the values were obtained:
# Assay in all cases: two-hybrid library CCmax;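 further: natural log of median RNA to DNA barcode read ratio; higher means stronger binding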
# 4H2190-AA = biological target: T1, 4H2190-AA; settings: mean of both orientations
# 4H1552-AA = biological target: T2, 4H1552-AA
# 4H881-AA = biological target: T3, 4H881-AA; settings: mean of both orientations
# 4H3627-AA = biological target: T4, 4H3627-AA; settings: mean of both orientations
# 4H317-AA = biological target: T5, 4H317-AA; settings: mean of both orientations
# 4H566-AA = biological target: T6, 4H566-AA; settings: mean of both orientations
# 4H906-AA = biological target: T7, 4H906-AA; settings: mean of both orientations
# 4H794-AA = biological target: T8, 4H794-AA; settings: mean of both orientations
# 4H2466-AA = biological target: T9, 4H2466-AA; settings: mean of both orientations
# 4H429-AA = biological target: T10, 4H429-AA; settings: mean of both orientations
# 4H2617-AA = biological target: T11, 4H2617-AA; settings: mean of both orientations
# 4H2575-AA = biological target: T12, 4H2575-AA; settings: mean of both orientations
# 4H780-AA = biological target: T13, 4H780-AA; settings: mean of both orientations
# 4H2165-AA = biological target: T14, 4H2165-AA; settings: mean of both orientations
# 4H3844-AA = biological target: T15, 4H3844-AA; settings: mean of both orientations
# 4H2729-AA = biological target: T16, 4H2729-AA; settings: mean of both orientations
# 4H1636-AA = biological target: T17, 4H1636-AA; settings: mean of both orientations
# 4H3655-AA = biological target: T18, 4H3655-AA; settings: mean of both orientations
# 4H342-AA = biological target: T19, 4H342-AA; settings: mean of both orientations
# 4H2505-AA = biological target: T20, 4H2505-AA; settings: mean of both orientations
# 4H48-AA = biological target: T21, 4H48-AA; settings: mean of both orientations
# 4H3343-AA = biological target: T22, 4H3343-AA; settings: mean of both orientations
# 4H993-AA = biological target: T23, 4H993-AA; settings: mean of both orientations
# 4H3112-AA = biological target: T24, 4H3112-AA; settings: mean of both orientations
# 4H2151-AA = biological target: T25, 4H2151-AA; settings: mean of both orientations
# 4H2949-AA = biological target: T26, 4H2949-AA; settings: mean of both orientations
# 4H335-AA = biological target: T27, 4H335-AA
# 4H3921-AA = biological target: T28, 4H3921-AA; settings: mean of both orientations
# 4H234-AA = biological target: T29, 4H234-AA; settings: mean of both orientations
# 4H454-AA = biological target: T30, 4H454-AA; settings: mean of both orientations
# 4H3427-AA = biological target: T31, 4H3427-AA; settings: mean of both orientations
# 4H1867-AA = biological target: T32, 4H1867-AA; settings: mean of both orientations
# 4H2078-AA = biological target: T33, 4H2078-AA; settings: mean of both orientations
# 4H2277-AA = biological target: T34, 4H2277-AA; settings: mean of both orientations
# 4H717-AA = biological target: T35, 4H717-AA; settings: mean of both orientations
# 4H2837-AA = biological target: T36, 4H2837-AA; settings: mean of both orientations
# 4H2754-AA = biological target: T37, 4H2754-AA; settings: mean of both orientations
# 4H2393-AA = biological target: T38, 4H2393-AA; settings: mean of both orientations
# 4H678-AA = biological target: T39, 4H678-AA; settings: mean of both orientations
# 4H2354-AA = biological target: T40, 4H2354-AA; settings: mean of both orientations
# 4H3606-AA = biological target: T41, 4H3606-AA; settings: mean of both orientations
# 4H2944-AA = biological target: T42, 4H2944-AA; settings: mean of both orientations
# 4H605-AA = biological target: T43, 4H605-AA; settings: mean of both orientations
# 4H2883-AA = biological target: T44, 4H2883-AA; settings: mean of both orientations
# 4H2642-AA = biological target: T45, 4H2642-AA; settings: mean of both orientations
binder,measurement,setting,value
DENAALKAEIAALEAEIAALKAKNAALKG [4H1552-AA],interaction score,4H2190-AA,-0.831
same,interaction score,4H1552-AA,0.838
same,interaction score,4H881-AA,-0.939
same,interaction score,4H3627-AA,1.45
same,interaction score,4H317-AA,0.795
same,interaction score,4H566-AA,-0.817
same,interaction score,4H906-AA,-1.18
same,interaction score,4H794-AA,-1.55
same,interaction score,4H2466-AA,-1.4
same,interaction score,4H429-AA,-0.746
same,interaction score,4H2617-AA,-0.622
same,interaction score,4H2575-AA,-0.206
same,interaction score,4H780-AA,0.0206
same,interaction score,4H2165-AA,-1.44
same,interaction score,4H3844-AA,1.43
same,interaction score,4H2729-AA,-0.018
same,interaction score,4H1636-AA,0.254
same,interaction score,4H3655-AA,1.01
same,interaction score,4H342-AA,-0.367
same,interaction score,4H2505-AA,-0.681
same,interaction score,4H48-AA,0.191
same,interaction score,4H3343-AA,0.455
same,interaction score,4H993-AA,-0.53
same,interaction score,4H3112-AA,-0.246
same,interaction score,4H2151-AA,-0.598
same,interaction score,4H2949-AA,-1.42
same,interaction score,4H335-AA,1.76
same,interaction score,4H3921-AA,-0.743
same,interaction score,4H234-AA,1.6
same,interaction score,4H454-AA,-0.754
same,interaction score,4H3427-AA,1.64
same,interaction score,4H1867-AA,2.28
same,interaction score,4H2078-AA,-0.958
same,interaction score,4H2277-AA,-1.3
same,interaction score,4H717-AA,-0.949
same,interaction score,4H2837-AA,-0.547
same,interaction score,4H2754-AA,-0.498
same,interaction score,4H2393-AA,-1.36
same,interaction score,4H678-AA,-0.931
same,interaction score,4H2354-AA,-1.41
same,interaction score,4H3606-AA,-0.722
same,interaction score,4H2944-AA,-1.04
same,interaction score,4H605-AA,-1.23
same,interaction score,4H2883-AA,2.2
same,interaction score,4H2642-AA,0.755
